Assay: label from the status in PepcDB records

MTVAQQAPSALNFDCETGNYHTFCPISCVSWLYQKIEDSFFLVIGTKTCGYFLQNAMGVMIFAEPRYAMAELEEGDISAQLKDYEELKRLCLQIKRDRNPSVIVWIGTCTTEIIKMDLEGLAPQLEAEIGIPIVTARANGLDYAFTQGEDTVLASMAHKCPTSAQVQGEDKEERNAIQKLLTFGRKADQEKVESEYVDHQPLVLFGSLPDPVVTNLTLELKKQGVKVSGWLPAKRYTELPVIDEGYYVAGVNPFLSRTATTLMRRRKCKLIGAPFPIGPDGTRAWIEKICSVLGIEPQGLEEREAQIWASLEDYIQLIRGKSVFFMGDNLLEVSLARFLIRCGMTCPEIGIPYMDKRYQAAELALLEKTCSDMGVPLPNIVEKPDNYNQIQRIKALQPDLVITGMAHANPLEAQGINTKWSVEFTFAQIHGFTNARDILELATRPLRRNSQLGELGWDKLIAKDVPAQV
protein production: failed

MLFTQALLVTLVGIIATIDYNGPLFMIHRPLVTSAMVGLVLGDFTQGVLIGSALELTWLGVTGIGGYTPPDTISGAIIGTAFGILSGQGETAGIAIAVPIAVATQQLDVLAKTLDVYFVKKADNDAKNGDYSKIGFYHYSSLVLITLFKIVPIFLAIMLGGEYVADLFAKVPPIVMQGLNSAGALLPSIGFGMLLNMMLKKNMWVFLLIGFICSVYGGMSTIGISLVGIAVAYFYDMIGSKPQETTSSSDVEEDLDL
protein production: failed

MEDSSLLSPISLLTIVIFLFILNLMMIIQDFSSSFPFRFHLFFSNAYILFTSIRNNKQNTELPIIKKVVVPNRADIKTSVEEVKAIIDDSEALYECLIEEGEEYLLEKNEMMGKEIVKEAFRLFDENQDGFIDENELKHVLSLLGYDECTKMECRKMVKVYDENRDGKIDFYEFVKLIEKSFS
protein production: failed

MSDEWKSETPKANDDKSWKLLEKAVLAGVQEQRRARRWGIFFKSLTFIYLFVVLLAFSPFGSLEKSASRSGSHTALIEVKGMIADDEPASADNIVTALRAAFKDEGTKGIVLRINSPGGSPVQSGYIYDEIRRLRGEHPNVKVYAVISDLGASGAYYIASAADQIYADKASLVGSIGVTAASFGFVGTMEKLGVERRVYTSGEHKSFLDPFQPQKPEETQFWQQVLDTTHKQFIDSVKKGRGDRLKVEGHPELFSGLVWSGEQALQLGLIDGLGNASYVAREVVKEKKIEDYTVQESPFDRFAKKFGASVAERLALWMGWQGPVLRLEHHHHHH
protein production: failed

MSHAVVSWTLWSLALYLTLPYLSSAIEHSINNPLFVGPFYIISSGIGSLSLLALERHVKLLSTIGLALSGIGLLMIGVDANQLLTIIGFIFYNLYWLSVPIFYYLLSEEEGSLTKAWSISMVPAIIMPVIAGILIRWGEIIIFILGGLLQLTSSIILILVKHRIDEDHMVGYDVGIPKNVIFVVLPLSIVMPFLYLDVRESLIWVIYSSGQILGILMSWFLWKSKNAIMLSLIIFSGIIFSVFSPIGILFYGSSEALVALGIEKSRPSLMKHAIKVALTEALVWTVGYAVGSLLYYISGFLPFIYSSLVSLILAMIIGLFSSLTFNSVISKNPLKNTIPFKIVRYLTLREGIFPYFKIS
protein production: failed

MSAICQVTGRQPGYGKSVSHSHRRTSRRWNPNVQRRKFYLPSEGRTITLNVSTKGLKVIDRDGIESVVAKIRARGEKILEHHHHHH
protein production: failed

MSNSSIDIGVPSLPPPFSIGTISIPTFSRQHLFLKIILHYNLVERYSRQLIVLGLGIQQRLNELKILIAGCGALGTAVAELLARLGVKELTIVDADVVDITNLHRVHLFDENDVGKPKAEVCAKKISLINSSIKINYIIDILDEENVERLISDKDYVFDALDSLYYKLLLNDAIVKLGKILIYGGINGEYGSAKLIDPSQTSCLSCFIDYSDQDEIGNSCDVIGTTPLIVELTATLQVNLMLNHLRGNPDYSLFYIDSRELKIERINIEKNSQCKTCVLNEYPFLYQKISKPKCGIFRTNMKIPELDEPKVFKNLGNVTLCYPSIGCFEKRGR
protein production: failed

MYKIDEVTKQVGLTKRTLRYYEEIGLIHPPERSEGNIRLYTDEDIARIKRIVEAKEVLGITLQEMQHFLSLKERMEQRRNSENPRDREVIQEIKEMLEKQVQTLDEKMEQMQRVKGELEDSLHRAVTFLENTKGE
protein production: failed

MEMKKSGRSLKMIFTQYFATVSLAFIALLCLIWAIFVISLNTKLIIPANQTEQELHRLEDKIEKADTFQAKRLPKDTAYLLMTKDGKIKESNMSKNLQQQALASYSGNAVSPNDYGYFMVFKRQKEVCIVNYRLEAHYSVAWMNKYLPNVSLLGLILTGLGVLLVFTLVTILFARRLQRQLSPIIAATQKIAKQNLDFTVQSSDIKEFNQVLNSLDTMRAALRDSLMHSWQVEQEKQNQIAALTHDIKTPLTVIKGNTELLKQTELSETQEAFVGYSLKNIGQVETYLQQLSYLAKNSQLQDFHPEKIKVAAFLEELSQNSQALAATKDIKIQFVNNLSDAQLTTYWDKGLLARALMNIISNAVEHSPQGSQLQLVCHLENELFQLTCLDSGQGFSREALDKAKMQFFQDDTSRHDRKHSGLGLTIADNIIRLHGGSLSLSNDAKTASGRVDVVLPLAKM
protein production: failed

MRPCCHWRPGPSGCHCCAGCGLAAEARRARERRGEAVIGLCGALAGEVRAGRQPGEALLHAAGDSGGLGDAQAAVLAAARFGGDVPGALADAAGQPGAEGLLGLGACWRVAVDRGAGLAAGLDRLEAALRAERDQRAELRAQLAGARSTAVMLAALPVLGLLLGTALGADPLHVVLHTGAGLACLLAGAVLEGAGLWWALRIVRGAEAA
protein production: failed

VWICTKCVRCKSCGSTTPGKGWDAQWSHDFSLCHDCAKLFAKGNFCPLCDKCYDDDDYESKMMQCGKCDRWVHSKCENLSDEMYEILSNLPESVAYTCVNCTERHPAEWRLALEKELQISLKQVLTALLNSRTTSHLLRYRQAAKPPDLNPETEESIPSRSSPEGPDPPVLTEVSKQDDQQPLDLEGVKRKMDQGNYTSVLEFSDDIVKIIQAAINSDGGQPEIKKANSMVKSFFIRQMERVFPWFSVKKSRFWEPNKVSSNSGMLPNAVLPPSLDHNYAQWQEREENSHTEQ
protein production: failed

PMEDEPTSKKLKTEDSLMPEEEFLRRNKGPVSIKVQVPNMQDKTEWKLNGQVLVFTLPLTDQVSVIKVKIHEATGMPAGKQKLQYEGIFIKDSNSLAYYNMANGAVIHLALKERGGRKK
protein production: failed

LRETEARLQRLADNLPGMLYEFCLKPDGTMTFPYVSSGCLELIECSPQELQDDASLTFASTYPEDIIGLQEAIANSAKTLQNFEHEWRIITSSGQLKWVKGASRPERKPGGEITWYGYLLDVSEQQAALRERKQADQQ
protein production: not failed

MINQRMIHMKNTKLLLAIATSAALLTGCQNTHGIDTNMAISSGLNAYKAATLSDADAKAIANQGCAEMDSGNQVASKSSKYGKRLAKIAKALGNNINGTPVNYKVYMTSDVNAWAMANGCVRVYSGLMDMMNDNEIEGVLGHELGHVALGHSLAEMKASYAIVAARDAISATSGVASQLSRSQLGDIAEGAINAKYSRDKESEADDFSFDLLKKRGISTQGLVGSFETLASLDGGRTQSMFDSHPPSTERAQHIRDRIASGKLEHHHHHH
protein production: failed

MTAPKITQKFNEVETKTTEILNKVLTDDRYFTVTSSFKQDATLGIEYYVTKVTPKTTEAKKSMVQKTFAYDFEKSIDPTSSYFGTTNRETVLSMAKRKRSVVAINASGWRSNGEVMGLQIKDGVLYKDYDAAGYTGAEACVFFDDGTMKVYGNREVDADILISKGARNSFAFGIWLVKDSKPRTAQMTTWADLNVKHPRQAIGQRSDGTLVIITVDGRSLRSSGITAYDMPSLFLSEGCINAFLLDGGGSSQTAVEGKYINNISDGIERAVVDTLTISYPDDDTDSRFFEVQEGRGLATSLNRRVEFIESKPTWNVLDLGFSPDGLIDNTAKFKKALSDLSEKGGGKLHFPKGTYLIGKQNTTSASEKIELPSNVSIVGERRSYTKLLRNPNHSLDELLRITDHNYIEGIEIDGNSSVNKSSCRLIAGGNIKSFKMKDCSLVNATDRGVSIHGIGKSITIEGMYISNIANECINVAEGEIIKLIDSEITFSGTALWVGNAANIFTKNNLAKSLKTFVRYKNSQNAICSGNIITNNIDRAIWGSVREAVFSDNVFKQCHSDYHLYFIQEDTGTNDLIVTGNSVYSDVEGTAFIRTPSDIDRRRVSGNVGNIPSLNLDLEHHHHHH
protein production: not failed

SYNYNIKRRIAEKAAELVQDNDTIMIESGSTCALLAEVLCQTKRNIKVITNSCFIANYIRQYSSCQIILLGGYYQPNSEVTVGPLLKEMISLFHVNRVFVGTDGFNKDLGFMGKDMMRSEGVRYMADAAEEVVILTDSSKFSKTSLVHQLSLADVNRVITDQALDKQTQELLSASGLVLDFVS
protein production: failed

MNKNQMLLGSFLCLLAVTAWGFMFPVMARALQFIDPFFFTTLRYGSAAIIFLILLLITEGKTSLRLEKRTLSLFFYGTVGFAGYGFLVFYGQQLAGPSGAIHAAMIQSLMPLIALSLQWITQNRRPQNYTFLCMFVALLGVMLVISKGNIELLFGAASHLSTNILMLCGVTCWVIYTNGAARFQSWSPLRYTTLTCLFGSISLIVIVTFLTYTNIVTMPSLRTVVSVRFELFYMSIIAGVIAVFCWNMGNRYISSINGILFMNLVPILALIGSIFRGYTVDKIEIAGAALTIIALLCNNLWQRKVNIKIPTSVR
protein production: failed

MLFRHKGILYLFLSSLIISAANPVIAKLITLGNEHLVNGRNPISFCNVLFAGNFIAVLTLILIHFRELKEFQPEHLTAKNWCLIFLAALFAGFLTPTLFFLGLMYTNVINVVLISNLQIPMTLLAGWIFLGEVPNIRVTTGAFLATLGVFAIVILQYWLGGAGALTPNPEMKTGPLFIFLSSIPRSGEICIFLAVVSSTASTIIGFHALRRLPHYLFSILKMLLGLVLFFFIVISMFGWHHFADLFSPFLWEWMLFYGSVIIALRYYFSMLGMKHAKVAEVAISSSIIPLMSIIFSYLILGEVPGISQIIGGSLILFGIYVALTGKLQAPEKTEILEKPSGFSGV
protein production: failed

RTKDQYYELRDFALGTSVRIVVSSQKINPRTIAEAILEDMKRITYKFSFTDERSVVKKINDHPNEWVEVDEETYSLIKAACAFAELTDGAFDPTVGRLLELWGFTGNYENLRVPSREEIEEALKHTGYKNVLFDDKNMRVMVKNGVKIDLGGIAKGYALDRARQIALSFDENATGFVEAGGDVRIIGPKFGKYPWVIGVKDPRGDDVIDYIYLKSGAVATSGDYERYFVVDGVRYHHILDPSTGYPARGVWSVTIIAEDATTADALSTAGFVMAGKDWRKVVLDFPNMGAHLLIVLEGGAIERSETFKLFERE
protein production: not failed

MSQNVISQPVEAQQSFARAVTESLPGLLLVCAVALVASFVAPKLEAYPLFKTYLSLKDFILAIIFGIIIRNTVGVPAVFQPGLRYSTIMTKTGIVIMGSSYSLAGLVSVGAQALVFIAVFLFGTALVMMWLCRKVGMSTPLAACLAAGMSVCGVSATIAIAPAVKAKNEDMAYSIAVVLMFGLLALIAFPLIGKVFNLTPEQFGAFAGVGIVNSAQVLAAGFGFSQEAGIVAGIYNIGRVVFLPFVVLMLAIMAAAQEAEQGNEVAKINKWQMIRDKFPLFVLGFLAIVCLNTAGVLTKPEVKMAKHFMEWAFLLGFASIGLTTRLSDLRAAGLNGFLFGFGVAGLKAALALAAVLLFMS
protein production: failed

MSNDTPFDALWQRMLARGWTPVSESRLDDWLTQAPDGVVLLSSDPKRTPEVSDNPVMIGELLHEFPDYTWQVAIADLEQSEAIGDRFGAFRFPATLVFTGGNYRGVLNGIHPWAELINLMRGLVEPQQERASLEHHHHHH
protein production: not failed

From a protein production outcome set (Wang et al. 2014)
